Data as given in patent US12679878B2, “CRF2 receptor agonists and their use in therapy” (SANOFI, priority 2020, dated 2026).
Starred links: 1 amine or outer side, 2 acyl side, 3 side chain; linkers in the order of their positions; H or OH if unused. Groups on a side chain read outwards from the residue. No end group written: not given here. *: point of attachment. C18 diacid = O=C(O)CCCCCCCCCCCCCCCCC(=O)*; γGlu = O=C(O)[C@H](CCC(=O)[*:2])N[*:1]; AEEA = NCCOCCOCC(=O)O

B1: SEQ ID NO: 59 (peptide)
peptide: FTLSLDVPTKIKQILLKQQKQKKERQQAEKNKQLLEQI-NH2
modifications: not fully specified (residue 12); printed as FTLSLDVPTKIK*QILLKQQKQKKERQQAEKNKQLLEQI-NH2
B2: SEQ ID NO: 52 (peptide)
peptide: FTLSLDVPTKIK([AEEA-AEEA-γGlu-C18 diacid])QILLKQQKQKKERQQAEKNKQLLERV-NH2
modifications: N-terminus assumed
SMILES: CC[C@H](C)[C@H](NC(=O)[C@H](CCC(N)=O)NC(=O)[C@H](CCCCNC(=O)COCCOCCNC(=O)COCCOCCNC(=O)CC[C@H](NC(=O)CCCCCCCCCCCCCCCCC(=O)O)C(=O)O)NC(=O)[C@@H](NC(=O)[C@H](CCCCN)NC(=O)[C@@H](NC(=O)[C@@H]1CCCN1C(=O)[C@@H](NC(=O)[C@H](CC(=O)O)NC(=O)[C@H](CC(C)C)NC(=O)[C@H](CO)NC(=O)[C@H](CC(C)C)NC(=O)[C@@H](NC(=O)[C@@H](N)Cc1ccccc1)[C@@H](C)O)C(C)C)[C@@H](C)O)[C@@H](C)CC)C(=O)N[C@@H](CC(C)C)C(=O)N[C@@H](CC(C)C)C(=O)N[C@@H](CCCCN)C(=O)N[C@@H](CCC(N)=O)C(=O)N[C@@H](CCC(N)=O)C(=O)N[C@@H](CCCCN)C(=O)N[C@@H](CCC(N)=O)C(=O)N[C@@H](CCCCN)C(=O)N[C@@H](CCCCN)C(=O)N[C@@H](CCC(=O)O)C(=O)N[C@@H](CCCNC(=N)N)C(=O)N[C@@H](CCC(N)=O)C(=O)N[C@@H](CCC(N)=O)C(=O)N[C@@H](C)C(=O)N[C@@H](CCC(=O)O)C(=O)N[C@@H](CCCCN)C(=O)N[C@@H](CC(N)=O)C(=O)N[C@@H](CCCCN)C(=O)N[C@@H](CCC(N)=O)C(=O)N[C@@H](CC(C)C)C(=O)N[C@@H](CC(C)C)C(=O)N[C@@H](CCC(=O)O)C(=O)N[C@@H](CCCNC(=N)N)C(=O)N[C@H](C(N)=O)C(C)C
B3: SEQ ID NO: 57 (peptide)
peptide: FTLSLDVPIGLK([AEEA-AEEA-γGlu-C18 diacid])QILLKQQKQKKERQKAETNVQLLERV-NH2
modifications: N-terminus assumed
SMILES: CC[C@H](C)[C@H](NC(=O)[C@H](CCC(N)=O)NC(=O)[C@H](CCCCNC(=O)COCCOCCNC(=O)COCCOCCNC(=O)CC[C@H](NC(=O)CCCCCCCCCCCCCCCCC(=O)O)C(=O)O)NC(=O)[C@H](CC(C)C)NC(=O)CNC(=O)[C@@H](NC(=O)[C@@H]1CCCN1C(=O)[C@@H](NC(=O)[C@H](CC(=O)O)NC(=O)[C@H](CC(C)C)NC(=O)[C@H](CO)NC(=O)[C@H](CC(C)C)NC(=O)[C@@H](NC(=O)[C@@H](N)Cc1ccccc1)[C@@H](C)O)C(C)C)[C@@H](C)CC)C(=O)N[C@@H](CC(C)C)C(=O)N[C@@H](CC(C)C)C(=O)N[C@@H](CCCCN)C(=O)N[C@@H](CCC(N)=O)C(=O)N[C@@H](CCC(N)=O)C(=O)N[C@@H](CCCCN)C(=O)N[C@@H](CCC(N)=O)C(=O)N[C@@H](CCCCN)C(=O)N[C@@H](CCCCN)C(=O)N[C@@H](CCC(=O)O)C(=O)N[C@@H](CCCNC(=N)N)C(=O)N[C@@H](CCC(N)=O)C(=O)N[C@@H](CCCCN)C(=O)N[C@@H](C)C(=O)N[C@@H](CCC(=O)O)C(=O)N[C@H](C(=O)N[C@@H](CC(N)=O)C(=O)N[C@H](C(=O)N[C@@H](CCC(N)=O)C(=O)N[C@@H](CC(C)C)C(=O)N[C@@H](CC(C)C)C(=O)N[C@@H](CCC(=O)O)C(=O)N[C@@H](CCCNC(=N)N)C(=O)N[C@H](C(N)=O)C(C)C)C(C)C)[C@@H](C)O
B4: SEQ ID NO: 56 (peptide)
peptide: FTLSLDVPIGLK([AEEA-AEEA-γGlu-C18 diacid])QILLKQQKQKKERQQAETNVQLLERV-NH2
modifications: N-terminus assumed
SMILES: CC[C@H](C)[C@H](NC(=O)[C@H](CCC(N)=O)NC(=O)[C@H](CCCCNC(=O)COCCOCCNC(=O)COCCOCCNC(=O)CC[C@H](NC(=O)CCCCCCCCCCCCCCCCC(=O)O)C(=O)O)NC(=O)[C@H](CC(C)C)NC(=O)CNC(=O)[C@@H](NC(=O)[C@@H]1CCCN1C(=O)[C@@H](NC(=O)[C@H](CC(=O)O)NC(=O)[C@H](CC(C)C)NC(=O)[C@H](CO)NC(=O)[C@H](CC(C)C)NC(=O)[C@@H](NC(=O)[C@@H](N)Cc1ccccc1)[C@@H](C)O)C(C)C)[C@@H](C)CC)C(=O)N[C@@H](CC(C)C)C(=O)N[C@@H](CC(C)C)C(=O)N[C@@H](CCCCN)C(=O)N[C@@H](CCC(N)=O)C(=O)N[C@@H](CCC(N)=O)C(=O)N[C@@H](CCCCN)C(=O)N[C@@H](CCC(N)=O)C(=O)N[C@@H](CCCCN)C(=O)N[C@@H](CCCCN)C(=O)N[C@@H](CCC(=O)O)C(=O)N[C@@H](CCCNC(=N)N)C(=O)N[C@@H](CCC(N)=O)C(=O)N[C@@H](CCC(N)=O)C(=O)N[C@@H](C)C(=O)N[C@@H](CCC(=O)O)C(=O)N[C@H](C(=O)N[C@@H](CC(N)=O)C(=O)N[C@H](C(=O)N[C@@H](CCC(N)=O)C(=O)N[C@@H](CC(C)C)C(=O)N[C@@H](CC(C)C)C(=O)N[C@@H](CCC(=O)O)C(=O)N[C@@H](CCCNC(=N)N)C(=O)N[C@H](C(N)=O)C(C)C)C(C)C)[C@@H](C)O
B5: SEQ ID NO: 55 (peptide)
peptide: FTLSLDVPTKIK([AEEA-AEEA-γGlu-C18 diacid])QILLKQQKQKKERQKAETNVQLLERV-NH2
modifications: N-terminus assumed
SMILES: CC[C@H](C)[C@H](NC(=O)[C@H](CCC(N)=O)NC(=O)[C@H](CCCCNC(=O)COCCOCCNC(=O)COCCOCCNC(=O)CC[C@H](NC(=O)CCCCCCCCCCCCCCCCC(=O)O)C(=O)O)NC(=O)[C@@H](NC(=O)[C@H](CCCCN)NC(=O)[C@@H](NC(=O)[C@@H]1CCCN1C(=O)[C@@H](NC(=O)[C@H](CC(=O)O)NC(=O)[C@H](CC(C)C)NC(=O)[C@H](CO)NC(=O)[C@H](CC(C)C)NC(=O)[C@@H](NC(=O)[C@@H](N)Cc1ccccc1)[C@@H](C)O)C(C)C)[C@@H](C)O)[C@@H](C)CC)C(=O)N[C@@H](CC(C)C)C(=O)N[C@@H](CC(C)C)C(=O)N[C@@H](CCCCN)C(=O)N[C@@H](CCC(N)=O)C(=O)N[C@@H](CCC(N)=O)C(=O)N[C@@H](CCCCN)C(=O)N[C@@H](CCC(N)=O)C(=O)N[C@@H](CCCCN)C(=O)N[C@@H](CCCCN)C(=O)N[C@@H](CCC(=O)O)C(=O)N[C@@H](CCCNC(=N)N)C(=O)N[C@@H](CCC(N)=O)C(=O)N[C@@H](CCCCN)C(=O)N[C@@H](C)C(=O)N[C@@H](CCC(=O)O)C(=O)N[C@H](C(=O)N[C@@H](CC(N)=O)C(=O)N[C@H](C(=O)N[C@@H](CCC(N)=O)C(=O)N[C@@H](CC(C)C)C(=O)N[C@@H](CC(C)C)C(=O)N[C@@H](CCC(=O)O)C(=O)N[C@@H](CCCNC(=N)N)C(=O)N[C@H](C(N)=O)C(C)C)C(C)C)[C@@H](C)O
B6: SEQ ID NO: 54 (peptide)
peptide: FTLSLDVPIKLK([AEEA-AEEA-γGlu-C18 diacid])QILLKQQKQKKERQQAETNVQLLERV-NH2
modifications: N-terminus assumed
SMILES: CC[C@H](C)[C@H](NC(=O)[C@H](CCC(N)=O)NC(=O)[C@H](CCCCNC(=O)COCCOCCNC(=O)COCCOCCNC(=O)CC[C@H](NC(=O)CCCCCCCCCCCCCCCCC(=O)O)C(=O)O)NC(=O)[C@H](CC(C)C)NC(=O)[C@H](CCCCN)NC(=O)[C@@H](NC(=O)[C@@H]1CCCN1C(=O)[C@@H](NC(=O)[C@H](CC(=O)O)NC(=O)[C@H](CC(C)C)NC(=O)[C@H](CO)NC(=O)[C@H](CC(C)C)NC(=O)[C@@H](NC(=O)[C@@H](N)Cc1ccccc1)[C@@H](C)O)C(C)C)[C@@H](C)CC)C(=O)N[C@@H](CC(C)C)C(=O)N[C@@H](CC(C)C)C(=O)N[C@@H](CCCCN)C(=O)N[C@@H](CCC(N)=O)C(=O)N[C@@H](CCC(N)=O)C(=O)N[C@@H](CCCCN)C(=O)N[C@@H](CCC(N)=O)C(=O)N[C@@H](CCCCN)C(=O)N[C@@H](CCCCN)C(=O)N[C@@H](CCC(=O)O)C(=O)N[C@@H](CCCNC(=N)N)C(=O)N[C@@H](CCC(N)=O)C(=O)N[C@@H](CCC(N)=O)C(=O)N[C@@H](C)C(=O)N[C@@H](CCC(=O)O)C(=O)N[C@H](C(=O)N[C@@H](CC(N)=O)C(=O)N[C@H](C(=O)N[C@@H](CCC(N)=O)C(=O)N[C@@H](CC(C)C)C(=O)N[C@@H](CC(C)C)C(=O)N[C@@H](CCC(=O)O)C(=O)N[C@@H](CCCNC(=N)N)C(=O)N[C@H](C(N)=O)C(C)C)C(C)C)[C@@H](C)O
B7: SEQ ID NO: 53 (peptide)
peptide: FTLSLDVPTKIK([AEEA-AEEA-γGlu-C18 diacid])QILLKQQKQKKERQQAETNKQLLERV-NH2
modifications: N-terminus assumed
SMILES: CC[C@H](C)[C@H](NC(=O)[C@H](CCC(N)=O)NC(=O)[C@H](CCCCNC(=O)COCCOCCNC(=O)COCCOCCNC(=O)CC[C@H](NC(=O)CCCCCCCCCCCCCCCCC(=O)O)C(=O)O)NC(=O)[C@@H](NC(=O)[C@H](CCCCN)NC(=O)[C@@H](NC(=O)[C@@H]1CCCN1C(=O)[C@@H](NC(=O)[C@H](CC(=O)O)NC(=O)[C@H](CC(C)C)NC(=O)[C@H](CO)NC(=O)[C@H](CC(C)C)NC(=O)[C@@H](NC(=O)[C@@H](N)Cc1ccccc1)[C@@H](C)O)C(C)C)[C@@H](C)O)[C@@H](C)CC)C(=O)N[C@@H](CC(C)C)C(=O)N[C@@H](CC(C)C)C(=O)N[C@@H](CCCCN)C(=O)N[C@@H](CCC(N)=O)C(=O)N[C@@H](CCC(N)=O)C(=O)N[C@@H](CCCCN)C(=O)N[C@@H](CCC(N)=O)C(=O)N[C@@H](CCCCN)C(=O)N[C@@H](CCCCN)C(=O)N[C@@H](CCC(=O)O)C(=O)N[C@@H](CCCNC(=N)N)C(=O)N[C@@H](CCC(N)=O)C(=O)N[C@@H](CCC(N)=O)C(=O)N[C@@H](C)C(=O)N[C@@H](CCC(=O)O)C(=O)N[C@H](C(=O)N[C@@H](CC(N)=O)C(=O)N[C@@H](CCCCN)C(=O)N[C@@H](CCC(N)=O)C(=O)N[C@@H](CC(C)C)C(=O)N[C@@H](CC(C)C)C(=O)N[C@@H](CCC(=O)O)C(=O)N[C@@H](CCCNC(=N)N)C(=O)N[C@H](C(N)=O)C(C)C)[C@@H](C)O
B8: SEQ ID NO: 58 (peptide)
peptide: FTLSLDVPTKIKQILFKQQKQKKERQQAEKNKQLLEQI-NH2
modifications: not fully specified (residue 12); printed as FTLSLDVPTKIK*QILFKQQKQKKERQQAEKNKQLLEQI-NH2

What follows are binders tested against human corticotropin-releasing factor 2α (CRF2 α receptor) (human), Q13324 (assay: cell-based or functional assay).
Sequence of human corticotropin-releasing factor 2α (CRF2 α receptor) (human), Q13324 (Q13324 20-411): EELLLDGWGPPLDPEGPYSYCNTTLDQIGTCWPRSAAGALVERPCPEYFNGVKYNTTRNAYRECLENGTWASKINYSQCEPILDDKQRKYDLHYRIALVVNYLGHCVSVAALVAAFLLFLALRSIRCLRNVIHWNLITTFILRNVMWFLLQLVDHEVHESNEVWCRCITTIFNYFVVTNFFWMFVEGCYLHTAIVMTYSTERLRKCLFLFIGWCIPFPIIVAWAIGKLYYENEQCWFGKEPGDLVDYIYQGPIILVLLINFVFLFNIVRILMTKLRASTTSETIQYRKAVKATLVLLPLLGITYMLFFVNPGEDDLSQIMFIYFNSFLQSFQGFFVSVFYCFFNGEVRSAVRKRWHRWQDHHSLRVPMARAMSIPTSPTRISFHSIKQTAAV

EC50 [nM], 0% HSA	EC50 [nM], 0.1% HSA	Binder
0.15 nM	17.4 nM	B1
0.7 nM	45.8 nM	B2
38.8 nM	–	B3
22.9 nM	–	B4
48.5 nM	–	B5
0.57 nM	24.5 nM	B6
1.01 nM	55.1 nM	B7
0.28 nM	–	B8
